Results taken from paper doi:10.1101/718155 (2019).

B1: S100B (natural protein)
chain: MSELEKAMVALIDVFHQYSGREGDKHKLKKSELKELINNELSHFLEEIKEQEVVDKVMETLDNDGDGECDFQEFMAFVAMVTTACHEFFEHE

How the values were obtained:
S100A5 [1] = assay: ITC; 310 K
S100B [2] = molecular target: B1; assay: FP; direct
S100A4 [3] = assay: FP; competitive
S100A5 [4] = assay: FP; competitive
S100A6 [5] = assay: FP; competitive
S100A4 [6] = assay: FP; direct
S100A5 [7] = assay: FP; direct
S100A6 [8] = assay: FP; direct
S100A2 [9] = assay: FP; direct
S100P [10] = assay: FP; direct
S100A2 [11] = assay: FP; competitive
S100P [12] = assay: FP; competitive
S100A1 [13] = assay: FP; competitive
S100A1 [14] = assay: ITC; 298 K
S100A3 [15] = assay: FP; direct
S100A14 = assay: FP; direct
S100A11 [16] = assay: FP; direct
S100A1 [17] = assay: FP; direct
S100G = assay: FP; direct
S100A7 = assay: FP; direct
S100A15 = assay: FP; direct
S100B [18] = molecular target: B1; assay: FP; competitive
S100A1 [19] = assay: ITC; 310 K
S100Z = assay: FP; direct
S100A13 = assay: FP; direct
S100A8 [20] = assay: FP; direct
S100A12 = assay: FP; direct
S100A9 = assay: FP; direct
S100A10 [21] = assay: FP; direct
S100A6 [22] = assay: ITC; 310 K
S100A3 [23] = assay: FP; competitive
S100B [24] = molecular target: B1; assay: ITC; 310 K; second site
S100B [25] = molecular target: B1; assay: ITC; 310 K
FOR20 = assay: FP; competitive
RSK1-CTKD = assay: FP; competitive
MK2 = assay: FP; competitive
S100A8 [26] = assay: FP; competitive
S100A11 [27] = assay: FP; competitive
S100A10 [28] = assay: FP; competitive
S100B [29] = molecular target: B1; assay: ITC; 298 K

| Binder | Kd (S100B [2]) [µM] | Kd (S100A4 [3]) [µM] | Kd (S100A5 [4]) [µM] | Kd (S100A6 [5]) [µM] | Kd (S100A4 [6]) [µM] | Kd (S100A5 [7]) [µM] | Kd (S100A6 [8]) [µM] | Kd (S100A2 [9]) [µM] | Kd (S100P [10]) [µM] | Kd (S100A2 [11]) [µM] | Kd (S100P [12]) [µM] | Kd (S100A1 [13]) [µM] | Kd (S100A3 [15]) [µM] | Kd (S100A14) [µM] | Kd (S100A11 [16]) [µM] | Kd (S100A1 [17]) [µM] | Kd (S100B [18]) [µM] | also measured |
| --- | --- | --- | --- | --- | --- | --- | --- | --- | --- | --- | --- | --- | --- | --- | --- | --- | --- | --- |
| SEGLMNVLKKIYEDG [SIP (188-202) peptide] | > 200 | 11 | 40 | 20 | 42 | 42 | 8.7 | 102 | 38 |  |  |  |  |  |  |  |  | Kd (S100A5 [1]): 21 µM |
| RKLQRELEDATETADAMNREVSSLKNKLRRGDLPFVVPRRMARK [NMIIA (1894-1937) peptide] | 4.7 | 0.0088 | 2.9 | 0.21 | 0.026 | 5.8 | 0.58 | 0.057 | 0.99 | 0.013 | 0.14 | 0.004 | 5.5 | 98 | 49 | 0.033 | 2.9 | Kd (S100A1 [14]): 0.009 µM; Kd (S100G): 21 µM; Kd (S100A7): 13.1 µM; Kd (S100A15): 17 µM |
| RRLLFYKYVYKR [NCX1 (254-265) peptide] | 7.7 |  | 5.2 |  | 15 | 4.6 | 27 | 5.5 | 4 |  |  | 2.6 | 25 | 71 | 52 | 2.6 | > 200 | Kd (S100A1 [19]): 6.4 µM; Kd (S100Z): 11 µM; Kd (S100A13): 87 µM; Kd (S100A8 [20]): 56 µM; Kd (S100A12): 170 µM; Kd (S100A9): 20 µM; Kd (S100A10 [21]): 53 µM; Kd (S100G): 24 µM; Kd (S100A7): 30 µM; Kd (S100A15): 28 µM |
| MAATAAAVVAEEDTELRDLLVQTLENSGVLNRIKAELRAAVFLALEEQ [FOP (1-48) peptide] |  | 0.048 | 0.56 | 0.0056 |  |  |  |  |  | 0.081 | 0.066 | 0.35 |  |  |  |  | 1.2 | Kd (S100A6 [22]): 0.088 µM; Kd (S100A3 [23]): 0.27 µM |
| TRTKIDWNKILS [CapZ (265-276) peptide] | 2.3 |  | 5.4 |  |  | 4.7 |  |  | 11 |  | 4.1 | 5.2 |  |  |  | 8.9 | 1.8 | Kd (S100B [24]): 0.94 µM; Kd (S100B [25]): 3.9 µM |
| B1 |  |  |  |  |  |  |  |  |  |  |  |  |  |  |  |  |  | Kd (FOR20): 0.25 µM; Kd (RSK1-CTKD): 1.2 µM; Kd (MK2): 3.2 µM |
| NQVRPKLPLLKILHAAGAQ [MDM4 (25-43) peptide] | 0.2 |  | 65 |  |  | 61 |  | 49 |  | 53 |  | 35 |  |  |  | 91 | 0.15 | Kd (S100B [24]): 0.63 µM; Kd (S100B [25]): 0.71 µM |
| VLQTWLQDLLRRGLVRAAQ [TRPM4 (129-147) peptide] | 16 | 35 | 2.3 | 8.4 | 5.9 | 0.6 | 1.4 | 1 | 0.93 | 1.1 |  |  | 0.91 | 12 | 2.4 | 0.38 | > 200 | Kd (S100A5 [1]): 1.4 µM; Kd (S100A3 [23]): 3.4 µM; Kd (S100A8 [26]): 13 µM; Kd (S100A11 [27]): 106 µM; Kd (S100A10 [28]): 125 µM; Kd (S100A8 [20]): 3.8 µM; Kd (S100A9): 21 µM; Kd (S100A10 [21]): 17 µM |
| GAMAATYSALNSSKPTPQLKPIESSILAQRRVRKLPSTTL [RSK1 (696-735) peptide] |  |  |  |  |  |  |  |  |  |  |  |  |  |  |  |  |  | Kd (S100B [29]): 12 µM |
